From patent US20130338214

Biological target: GST-labeled ROR1 (intracellular domain), recombinant, purified from Sf9 insect cells (UniProt Q01973)
Sequence (Q01973 428-937): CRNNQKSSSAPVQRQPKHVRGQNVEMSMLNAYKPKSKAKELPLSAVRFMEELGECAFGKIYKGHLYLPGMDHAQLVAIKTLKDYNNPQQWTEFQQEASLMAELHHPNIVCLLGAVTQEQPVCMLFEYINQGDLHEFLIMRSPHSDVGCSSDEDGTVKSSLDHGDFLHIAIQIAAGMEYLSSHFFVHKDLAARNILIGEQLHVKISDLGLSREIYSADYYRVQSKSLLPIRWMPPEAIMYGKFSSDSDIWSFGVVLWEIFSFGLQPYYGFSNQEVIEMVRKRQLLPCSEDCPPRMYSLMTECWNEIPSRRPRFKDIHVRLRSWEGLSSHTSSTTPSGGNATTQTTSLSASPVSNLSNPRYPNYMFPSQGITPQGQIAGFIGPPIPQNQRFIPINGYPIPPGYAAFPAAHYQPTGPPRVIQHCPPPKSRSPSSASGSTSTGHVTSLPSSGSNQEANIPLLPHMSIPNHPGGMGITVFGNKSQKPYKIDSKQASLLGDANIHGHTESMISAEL

Question: With “endogenous c-Src (NCI-H1975, 293T, NCI-H23 cells)” as the substance, how does the “in vitro ROR1 kinase assay, western blot with anti-phospho-c-Src antibody (c-Src immunoprecipitated from NCI-H23 and 293T lysates as substrate)” value read?
Answer: c-Src was phosphorylated by ROR1
